For assay [1], the target named is Human opioid receptor subtype µ (human) (UniProt P35372). Briefly: cell-based or functional assay.
The target of assay [2] is Human opioid receptor subtype δ2 (human) (UniProt P41143). The assay can be described thus: cell-based or functional assay.
Sequence of Human opioid receptor subtype δ2 (human) (P41143 whole entry, stated change not applied): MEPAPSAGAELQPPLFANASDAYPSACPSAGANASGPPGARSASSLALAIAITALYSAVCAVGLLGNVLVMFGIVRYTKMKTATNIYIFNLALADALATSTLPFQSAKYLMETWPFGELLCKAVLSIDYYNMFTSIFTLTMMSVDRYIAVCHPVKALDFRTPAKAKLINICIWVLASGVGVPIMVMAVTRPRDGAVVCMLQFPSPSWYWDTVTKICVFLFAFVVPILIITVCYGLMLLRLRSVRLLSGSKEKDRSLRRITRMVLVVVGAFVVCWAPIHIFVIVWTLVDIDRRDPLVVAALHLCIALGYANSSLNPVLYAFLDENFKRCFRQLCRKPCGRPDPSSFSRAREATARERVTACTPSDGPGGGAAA

Sequence of Human opioid receptor subtype µ (human) (P35372 whole entry): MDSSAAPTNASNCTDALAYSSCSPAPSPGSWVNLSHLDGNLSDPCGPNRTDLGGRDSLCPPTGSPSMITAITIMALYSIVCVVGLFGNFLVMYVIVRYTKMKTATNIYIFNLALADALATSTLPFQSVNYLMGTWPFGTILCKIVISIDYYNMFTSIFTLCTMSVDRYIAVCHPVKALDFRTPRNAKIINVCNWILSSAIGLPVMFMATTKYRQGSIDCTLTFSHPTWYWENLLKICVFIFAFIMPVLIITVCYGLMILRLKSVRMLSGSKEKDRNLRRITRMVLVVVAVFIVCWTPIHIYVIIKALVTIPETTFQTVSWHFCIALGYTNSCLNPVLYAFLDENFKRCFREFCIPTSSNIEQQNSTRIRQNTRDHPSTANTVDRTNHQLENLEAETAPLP

In the case of “dynorphin A (from UniProt P01213 207-223) (peptide)”, the increase in basal level fluorescence (binding of BODIPY-FL-GTPγS to receptor arrays) in assay [1] was 2.5 fold; in assay [2] it was 10 fold.

The values above are taken from patent US20020094544A1.
